One molecule from WO2008112290A2 (dated 2008) can be followed below.

This experiment has as its target T1, Human EphB4 (Genbank ID No. NP_004435) (human, UniProt P54760 16-987, limits assumed).
T1 construct: Detected as denatured protein on Western blot (MAb265), on tissue sections (MAb131) and by immunoprecipitation (MAb47); also called EphB4 receptor
T1 sequence: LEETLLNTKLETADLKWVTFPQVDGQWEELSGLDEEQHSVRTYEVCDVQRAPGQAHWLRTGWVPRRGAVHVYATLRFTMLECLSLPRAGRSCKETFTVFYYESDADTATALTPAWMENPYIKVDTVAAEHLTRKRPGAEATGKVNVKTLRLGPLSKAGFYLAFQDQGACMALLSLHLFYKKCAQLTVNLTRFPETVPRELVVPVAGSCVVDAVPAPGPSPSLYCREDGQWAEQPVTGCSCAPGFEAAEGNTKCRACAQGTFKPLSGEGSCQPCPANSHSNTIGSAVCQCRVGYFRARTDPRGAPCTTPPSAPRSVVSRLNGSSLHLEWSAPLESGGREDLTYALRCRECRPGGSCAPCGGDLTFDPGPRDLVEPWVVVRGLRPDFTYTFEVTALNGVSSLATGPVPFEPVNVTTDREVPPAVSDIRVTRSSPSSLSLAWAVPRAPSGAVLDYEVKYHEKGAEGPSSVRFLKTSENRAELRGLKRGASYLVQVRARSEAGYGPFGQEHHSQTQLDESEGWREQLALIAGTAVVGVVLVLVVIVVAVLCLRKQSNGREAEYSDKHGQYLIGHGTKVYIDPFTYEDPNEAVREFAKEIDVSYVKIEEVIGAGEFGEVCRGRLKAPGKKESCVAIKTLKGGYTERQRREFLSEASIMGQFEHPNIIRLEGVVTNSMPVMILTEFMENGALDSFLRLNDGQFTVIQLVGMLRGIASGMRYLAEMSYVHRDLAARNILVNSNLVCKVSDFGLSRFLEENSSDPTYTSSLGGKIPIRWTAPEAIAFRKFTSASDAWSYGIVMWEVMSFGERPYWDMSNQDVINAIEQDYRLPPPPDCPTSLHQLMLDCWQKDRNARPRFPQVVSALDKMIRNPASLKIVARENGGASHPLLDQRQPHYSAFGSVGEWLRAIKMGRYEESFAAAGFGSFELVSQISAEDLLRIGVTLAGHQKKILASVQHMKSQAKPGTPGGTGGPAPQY
Kind of experiment: Western blot. On the technique in general: Immunoblotting shows a protein as a band on a membrane.

B1: mouse monoclonal antibody 265 (antibody, V domains shown)
VH: QQSGAELARPGASVKLSCKASGYTFTSYWMQWVKQRPGQGLEWIGAIYPGDGDTRYTQKFKGKATLTADKSSSTAYMQLSTLASEDSAVYYCARVGGWLLLAYWGQGTTVT
VL: DIVMTQSPSSLAMSVGQKVTMNCKSSQSLLNSNTQKNYLAWYQQKPGHSPKLLVYLSSTRESGVPDRFIGSGSGTDFTLTISSVQAEDLADYFCQQHYTTPLTFGAGTKLELKR
notes: Mouse monoclonal from a hybridoma; also called MAb265; MAB265
With B1, the binding result is recorded as “binds”.
